Assay results: publication PMC12816671

Key:
Ku70 SAP domain WT = Ku70 SAP domain WT (Homo sapiens, UniProt P12956 539-609); experiment: EMSA; 46 mM KCl; preferred over nucleosome; SAP EMSA: 105 mM KCl (400 bp) or 46 mM KCl (153 bp), 3 mM Tris-HCl pH 7.5, 0.1 mM EDTA, 3-4% glycerol, 15 min room temp, agarose (0.8% or 1.5%); Ku70/80 EMSA: 5; conditions: protein: recombinant; tags: none (His14-SUMObd cleaved)
Ku70/80 full length = Ku70/80 full length (Homo sapiens, UniProt P12956;P13010 1-609;1-732); experiment: EMSA; SAP EMSA: 105 mM KCl (400 bp) or 46 mM KCl (153 bp), 3 mM Tris-HCl pH 7.5, 0.1 mM EDTA, 3-4% glycerol, 15 min room temp, agarose (0.8% or 1.5%); Ku70/80 EMSA: 5; conditions: protein: recombinant; copies: 1;1
Ku70/80-dSAP = Ku70/80-dSAP (Homo sapiens, UniProt P12956;P13010 1-544;1-732); experiment: EMSA; higher shift than full length, multiple loading; SAP EMSA: 105 mM KCl (400 bp) or 46 mM KCl (153 bp), 3 mM Tris-HCl pH 7.5, 0.1 mM EDTA, 3-4% glycerol, 15 min room temp, agarose (0.8% or 1.5%); Ku70/80 EMSA: 5; conditions: protein: recombinant; copies: 1;1

Measured: binding result

Sequence of Ku70/80 full length (P12956 whole entry, chain 1 of 2): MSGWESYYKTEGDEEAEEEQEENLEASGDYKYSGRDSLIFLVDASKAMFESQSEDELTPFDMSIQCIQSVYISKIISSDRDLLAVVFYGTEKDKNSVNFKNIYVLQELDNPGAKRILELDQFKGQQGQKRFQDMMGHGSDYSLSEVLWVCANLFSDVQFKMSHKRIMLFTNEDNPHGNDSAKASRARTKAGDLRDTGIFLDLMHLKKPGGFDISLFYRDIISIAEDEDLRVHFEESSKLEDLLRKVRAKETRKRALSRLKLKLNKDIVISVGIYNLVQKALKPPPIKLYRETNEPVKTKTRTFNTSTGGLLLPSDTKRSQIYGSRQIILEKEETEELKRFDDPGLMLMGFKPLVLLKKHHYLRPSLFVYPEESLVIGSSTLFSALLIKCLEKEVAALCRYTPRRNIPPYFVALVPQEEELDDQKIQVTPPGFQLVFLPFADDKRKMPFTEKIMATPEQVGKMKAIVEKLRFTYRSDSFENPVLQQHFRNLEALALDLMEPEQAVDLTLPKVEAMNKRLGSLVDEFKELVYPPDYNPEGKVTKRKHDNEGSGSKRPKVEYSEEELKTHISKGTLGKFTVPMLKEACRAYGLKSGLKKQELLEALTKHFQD
Sequence of Ku70/80 full length (P13010 whole entry, chain 2 of 2): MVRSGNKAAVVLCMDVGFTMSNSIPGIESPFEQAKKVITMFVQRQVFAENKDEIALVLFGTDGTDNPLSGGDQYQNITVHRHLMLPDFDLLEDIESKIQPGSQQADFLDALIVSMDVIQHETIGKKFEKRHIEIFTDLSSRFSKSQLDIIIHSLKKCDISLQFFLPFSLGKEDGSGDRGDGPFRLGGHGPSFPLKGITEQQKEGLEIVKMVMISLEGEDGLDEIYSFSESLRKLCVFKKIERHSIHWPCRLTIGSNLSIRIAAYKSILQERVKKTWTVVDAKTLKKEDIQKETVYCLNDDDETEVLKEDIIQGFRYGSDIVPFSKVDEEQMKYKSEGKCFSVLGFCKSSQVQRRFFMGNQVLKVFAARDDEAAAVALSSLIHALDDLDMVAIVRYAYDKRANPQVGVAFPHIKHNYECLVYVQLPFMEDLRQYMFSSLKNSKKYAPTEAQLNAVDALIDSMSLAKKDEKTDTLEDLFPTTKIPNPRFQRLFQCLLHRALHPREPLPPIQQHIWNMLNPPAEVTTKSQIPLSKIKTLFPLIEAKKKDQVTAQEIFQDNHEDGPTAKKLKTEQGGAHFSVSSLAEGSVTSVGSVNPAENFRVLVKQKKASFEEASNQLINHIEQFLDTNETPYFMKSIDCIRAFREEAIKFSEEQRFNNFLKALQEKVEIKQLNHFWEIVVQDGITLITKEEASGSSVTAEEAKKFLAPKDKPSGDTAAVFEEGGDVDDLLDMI
Sequence of Ku70/80-dSAP (P12956 1-544, chain 1 of 2): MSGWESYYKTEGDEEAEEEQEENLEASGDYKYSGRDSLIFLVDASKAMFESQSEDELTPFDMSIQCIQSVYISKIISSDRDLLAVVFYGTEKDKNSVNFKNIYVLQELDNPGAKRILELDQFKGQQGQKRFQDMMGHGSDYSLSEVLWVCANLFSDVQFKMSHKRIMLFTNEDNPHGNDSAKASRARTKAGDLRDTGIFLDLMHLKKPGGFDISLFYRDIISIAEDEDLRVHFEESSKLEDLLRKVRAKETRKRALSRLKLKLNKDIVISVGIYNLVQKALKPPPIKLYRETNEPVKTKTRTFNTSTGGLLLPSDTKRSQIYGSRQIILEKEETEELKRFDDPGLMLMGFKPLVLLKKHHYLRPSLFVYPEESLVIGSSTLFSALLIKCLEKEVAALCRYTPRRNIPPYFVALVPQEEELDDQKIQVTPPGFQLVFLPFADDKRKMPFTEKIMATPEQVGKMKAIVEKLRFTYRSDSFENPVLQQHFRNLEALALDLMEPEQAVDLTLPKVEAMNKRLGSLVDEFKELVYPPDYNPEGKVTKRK
Sequence of Ku70/80-dSAP (P13010 whole entry, chain 2 of 2): as the sequence (P13010 whole entry, chain 2 of 2) above
Sequence of Ku70 SAP domain WT (P12956 539-609): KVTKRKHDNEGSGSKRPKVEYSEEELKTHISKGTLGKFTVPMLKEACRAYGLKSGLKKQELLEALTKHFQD

B1: 153 bp free DNA (dsDNA)
DNA 1: ATCCTGGAGAATCCCGGTGCCGAGGCCGCTCAATTGGTCGTAGACAGCTCTAGCACCGCTTAAACGCACGTACGCGCTGTCCCCCGCGTTTTAACCGCCAAGGGGATTACTCCCTAGTCTCCAGGCACGTGTCAGATATATACATCCTGTGAT
DNA 2: ATCACAGGATGTATATATCTGACACGTGCCTGGAGACTAGGGAGTAATCCCCTTGGCGGTTAAAACGCGGGGGACAGCGCGTACGTGCGTTTAAGCGGTGCTAGAGCTGTCTACGACCAATTGAGCGGCCTCGGCACCGGGATTCTCCAGGAT
binds: all assays above
